Test results as given in doi:10.1101/102160.

Tests used:
[1] = biological target: CTD2, C-terminal domain of the OCP2 from Fremyella diplosiphon, with C-terminal HisTag (Fremyella diplosiphon UTEX481); assay: SEC
[2] = biological target: NTD1-CTD1 heterodimer (with canthaxanthin) (Fremyella diplosiphon UTEX481); assay: SEC

stoichiometry N [1]	stoichiometry N [2]	Substance
2	–	CTD2, C-terminal domain of the OCP2 from Fremyella diplosiphon, with C-terminal HisTag (domain or fragment)
–	2	NTD1-CTD1 heterodimer (with canthaxanthin) (complex)
